Test results: patent US20220096653A1, “CONJUGATE COMPRISING LIGAND AND CEACAM5 ANTIBODY FAB FRAGMENT” (ASTELLAS PHARMA INC., priority 2019, published 2022)
Values belong to the molecule of their own block, whether it stands above or below them.

Key:
[1] = mouse, in vivo
Experimental: A Gd-labeled conjugate of the conjugate containing a peptide linker produced in one of the above Examples was administered from the tail vein of mice (BALB/c or BALB/c nu/nu) so that the protein mass was 0.02 mg (100 μL) per animal. After about 24 hours, the mice were sacrificed and the kidneys were removed, and the amount of Gd in the kidneys was measured using ICP-MS. The present test was carried out in 3 cases in each group, the mean value of the 3 cases was calculated, and the amount of Gd contained per kidney after administration was shown as a percentage (% of dose/tissue) of the total amount of Gd administered.
Based on the percentage of the control conjugate (% of dose/tissue), the proportion of decrease in the amount of Gd contained in the kidneys of each of the conjugates having a peptide linker was determined and shown in Table 28.

[2] = target: human cancer-specific MUC1 peptide (PTL 1) (human); assay: ELISA on immobilised human cancer-specific MUC1 peptide, 4-parameter fit, duplicate (Example 6-2)
[3] = target: T1, CEACAM5 (R&D Systems, 4128-CM-050) (human, UniProt P06731 35-685); assay: ELISA on immobilised CEACAM5, 4-parameter fit, duplicate
T1 construct: Immobilised on the ELISA plate; also called human CEACAM5
T1 sequence (looked up): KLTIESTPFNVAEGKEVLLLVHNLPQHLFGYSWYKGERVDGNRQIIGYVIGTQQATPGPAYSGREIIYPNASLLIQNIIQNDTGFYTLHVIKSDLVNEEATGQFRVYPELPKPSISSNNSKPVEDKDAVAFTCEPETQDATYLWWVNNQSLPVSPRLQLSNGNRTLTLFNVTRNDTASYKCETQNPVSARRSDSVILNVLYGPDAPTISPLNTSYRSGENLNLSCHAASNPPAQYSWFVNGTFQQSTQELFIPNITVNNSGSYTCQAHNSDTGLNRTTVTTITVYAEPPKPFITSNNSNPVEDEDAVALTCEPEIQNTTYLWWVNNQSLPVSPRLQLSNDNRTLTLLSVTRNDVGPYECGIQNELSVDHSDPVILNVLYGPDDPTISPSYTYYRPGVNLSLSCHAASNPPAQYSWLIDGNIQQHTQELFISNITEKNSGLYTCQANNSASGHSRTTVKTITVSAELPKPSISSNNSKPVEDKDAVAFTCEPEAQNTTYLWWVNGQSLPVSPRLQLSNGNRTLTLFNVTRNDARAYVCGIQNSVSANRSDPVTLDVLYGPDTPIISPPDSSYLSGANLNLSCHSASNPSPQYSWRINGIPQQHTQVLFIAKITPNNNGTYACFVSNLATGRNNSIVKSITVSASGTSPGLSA
Experimental: Each anti-human CEACAM5 antibody Fab fragment conjugate prepared in Example 2 was subjected to ELISA to evaluate the binding activity thereof to CEACAM5. In the present test, a phosphate buffer (Nacalai Tesque Inc., 0.1 mol/L-Phosphate Buffer Solution (pH 7.2)) prepared to 10 mM by diluting 10-fold with distilled water was used as a solvent for an antigen immobilization liquid, and 20×PBS/Tween 20 Buffer (Thermo Fisher Scientific Inc., 28352) diluted 20-fold with distilled water was used as a wash liquid. In addition, for bovine serum albumin (BSA) used in the present test, 30% Bovine Serum Albumin solution (Sigma-Aldrich, Inc., A9576-50ML) was added in an appropriate proportion for use. CEACAM5 (R&D Systems, 4128-CM-050) was diluted with a 10 mM phosphate buffer (pH 7.2) to 0.1 μg/mL, and added to a Nunc MaxiSorp White 384 plate (Nunc, 4603272) at 30 μL per well, and the plate was incubated overnight at 4° C. for immobilization. The CEACAM5 immobilization liquid was removed by reverse centrifugation, and then blocking was carried out by adding a PBS/Tween 20 buffer containing 5.0% BSA. Thereafter, the blocking solution was removed by reverse centrifugation, a solution of each CEACAM5 antibody Fab² fragment conjugate described above or a Fab² fragment having no labeling portion (PB009-01) as a control at about 10000 ng/mL was diluted in 14 steps by 3-fold dilution using a PBS/Tween 20 buffer containing 1.0% BSA, and 30 μL was added per well and incubated at room temperature for 60 minutes. The plate was washed 3 times with a PBS/Tween 20 buffer, and Horseradish Peroxidase (HRP)-labeled goat anti-human IgG (H+L chain) antibody (MBL Life Sciences, 206) diluted 1000-fold using a PBS/Tween 20 buffer containing 5.0% BSA was added at 30 μL per well and incubated at room temperature for 30 minutes. The plate was washed 3 times with a PBS/Tween 20 buffer, and ECL Prime Western Blotting DETECTION Reagent (GE Healthcare, RPN2232) as a substrate was added at 30 μL per well. The substrate was incubated at room temperature for 15 minutes, and then a signal value thereof was measured using an Envision counter (PerkinElmer, Inc.).
The test for each antibody was carried out in duplicate, and an EC₅₀ value was calculated using a 4-parameter logistic curve model.

B1: [Gd/DOTA-NH—CH2-(1,3-Ph)-C(═O)-Asp-Gly-Lys*-Z2(#N)]p-Fab^2 (conjugate)
heavy: EVQLVESGGGLVQPGGSLRLSCAASGFNIRDTYMHWVRQAPGKGLEWVARIDPANGNSRYVPKFQGRFTISADTSRNTAYLQMNSLRAEDTAVYYCAPFGYYVSDYAMAYWGQGTLVTVSSASTKGPSVFPLAPSSKSTSGGTAALGCLVKDYFPEPVTVSWNSGALTSGVHTFPAVLQSSGLYSLSSVVTVPSSSLGTQTYICNVNHKPSNTKVDKKVEPKSCD
light: DIQLTQSPSSLSASVGDRVTITCRAGESVDIFGVGFLHWYQQKPGKAPKLLIYRASNLESGIPSRFSGSGSRTDFTLTISSLQPEDFATYYCQQTNEDPYTFGQGTKVEIKRTVAAPSVFIFPPSDEQLKSGTASVVCLLNNFYPREAKVQWKVDNALQSGNSQESVTEQDSKDSTYSLSSTLTLSKADYEKHKVYACEVTHQGLSSPVTKSFNRGEC
- % of dose/tissue (amount of Gd contained per kidney) [1]: 14.8 % of dose/tissue
- Proportion of decrease (amount of Gd contained in the kidneys) [1]: 52.2%

B2: [Gd/DOTA-NH—(CH2CH2O)3—CH2—C(═O)—NH—CH2-(1,3-Ph)-C(═O)-Gly-Lys*-Z2(#N)]p-Fab^2 (conjugate)
heavy: B1 heavy
light: B1 light
- % of dose/tissue (amount of Gd contained per kidney) [1]: 17.1 % of dose/tissue
- Proportion of decrease (amount of Gd contained in the kidneys) [1]: 44.8%

B3: [Gd/DOTA-NH—CH2-(1,3-Ph)-C(═O)-Met-Gly-Lys*-Z2(#N)]p-Fab^2 (conjugate)
heavy: B1 heavy
light: B1 light
- % of dose/tissue (amount of Gd contained per kidney) [1]: 15.4 % of dose/tissue
- Proportion of decrease (amount of Gd contained in the kidneys) [1]: 50.3%

B8: (Y-S1-X)p-Fab^2 with Y Gd/4arm-DOTA, S1 -CH2-(1,4-Ph)-NH-C(═S)-, X -Gly-(naph-Ala)-Lys*-Z2(#N)- (Fab, V domains shown)
VH: EVQLVESGGGLVQPGGSLRLSCAASGFNIRDTYMHWVRQAPGKGLEWVARIDPANGNSRYVPKFQGRFTISADTSRNTAYLQMNSLRAEDTAVYYCAPFGYYVSDYAMAYWGQGTLVTVSS
VL: DIQLTQSPSSLSASVGDRVTITCRAGESVDIFGVGFLHWYQQKPGKAPKLLIYRASNLESGIPSRFSGSGSRTDFTLTISSLQPEDFATYYCQQTNEDPYTFGQGTKVEIKR
modifications: labeling may sit on this chain; sites not stated; labeling portion (MW 1187) on amino groups of the Fab, sites and chain not stated; 1-2 per Fab by MS
notes: also called Ex-No 55; conjugate 55
- EC50 [3]: 0.26 nM

B11: (Y-S1-X)p-Fab^2 with Y DFO, S1 -C(═O)-(1,3-Ph)-C(═O)-, X -Gly-Lys*Z2(#S)- (Fab, V domains shown)
VH: B8 VH
VL: B8 VL
modifications: labeling may sit on this chain; sites not stated; labeling portion (MW 1076) on amino groups of the Fab, sites and chain not stated; 1-3 per Fab by MS
notes: No metal; also called Ex-No 64; conjugate 64
- EC50 [3]: 0.2 nM

B12: (Y-S1-X)p-Fab^2 with Y Gd/4arm-DOTA, S1 spacer (o), X -Met-Gly-Lys*-Z2(#N)- (Fab, V domains shown)
VH: B8 VH
VL: B8 VL
modifications: labeling may sit on this chain; sites not stated; labeling portion (MW 1304) on amino groups of the Fab, sites and chain not stated; 1-2 per Fab by MS
notes: also called Ex-No 59; conjugate 59
- EC50 [3]: 0.3 nM

The next lines start with the values.

- EC50 [2]: 0.08 nM
B4: [Gd/DOTA-NH-CH2-(1,4-Ph)-NH-C(═O)-Met-Ile-NH-(CH2)2-Z1(#N)]p-Fab^5 (Fab, V domains shown)
VH: QVQLVQSGAEVKKPGASVKVSCKASGYTFTNYGLSWVRQAPGQGLEWMGENHPGSGIIYHNEKFRGRVTLTADRSTSTAYMELSSLRSEDTAVYYCARSSGTRGFDYWGQGTLVTVSS
VL: DVVMTQTPLSLSVTPGQPASISCRSSQSIVHSNGNTYLEWYLQKPGQSPQLLIYRVSNRFSGVPDRFSGSGSGTDFTLKISRVEAEDVGVYYCFQGSHGPWTFGQGTKLEIKR
modifications: labeling may sit on this chain; sites not stated; labeling portion (MW 1074) on amino groups of the Fab, sites and chain not stated; 1-2 per Fab by MS; Gln 1 pyroglutamic acid as Fab^5 is defined in paragraph 370

- EC50 [2]: 0.08 nM
B5: Ex-No 103, conjugate of Fab^5 (structure given only as drawing CHEM-US-00162) (Fab, V domains shown)
VH: B4 VH
VL: B4 VL
modifications: labeling may sit on this chain; sites not stated; low molecular weight molecule (MW 1115) bound to the Fab, sites and chain not stated; 1-2 per Fab by MS; Gln 1 pyroglutamic acid as Fab^5 is defined in paragraph 370

- EC50 [2]: 0.07 nM
B6: Ex-No 102, conjugate of Fab^5 (structure given only as drawing CHEM-US-00161) (Fab, V domains shown)
VH: B4 VH
VL: B4 VL
modifications: labeling may sit on this chain; sites not stated; low molecular weight molecule (MW 1278) bound to the Fab, sites and chain not stated; 1-2 per Fab by MS; Gln 1 pyroglutamic acid as Fab^5 is defined in paragraph 370

- EC50 [3]: 0.21 nM
B7: (Y-S1-X)p-Fab^2 with Y Gd/DOTA, S1 -NH-(CH2CH2O)3-CH2-C(═O)-, X -Met-Gly-Lys*-Z2(#N)- (Fab, V domains shown)
VH: B8 VH
VL: B8 VL
modifications: labeling may sit on this chain; sites not stated; labeling portion (MW 1145) on amino groups of the Fab, sites and chain not stated; 1-4 per Fab by MS
notes: also called Ex-No 41; conjugate 41

- EC50 [3]: 0.15 nM
B9: (Y-S1-X)p-Fab^2 with Y Gd/DOTA, S1 - (bond), X -Gly-Tyr*-CH2-C-(═O)-Lys*-Z2(#N)- (Fab, V domains shown)
VH: B8 VH
VL: B8 VL
modifications: labeling may sit on this chain; sites not stated; labeling portion (MW 1046) on amino groups of the Fab, sites and chain not stated; 1-3 per Fab by MS
notes: also called Ex-No 4; conjugate 4

- EC50 [3]: 0.16 nM
B10: (Y-S1-X)p-Fab^2 with Y Gd/DOTA, S1 - (bond), X -Gly-Lys*-C(═S)-NH-(1,4-Ph)-NH-C(═S)- (Fab, V domains shown)
VH: B8 VH
VL: B8 VL
modifications: labeling may sit on this chain; sites not stated; labeling portion (MW 937) on amino groups of the Fab, sites and chain not stated; 1-2 per Fab by MS
notes: also called Ex-No 1; conjugate 1

- EC50 [3]: 0.29 nM
B13: (Y-S1-X)p-Fab^2 with Y Gd/DOTA, S1 spacer (p), X -Met-Gly-Lys*-Z2(#N)- (Fab, V domains shown)
VH: B8 VH
VL: B8 VL
modifications: labeling may sit on this chain; sites not stated; labeling portion (MW 1079) on amino groups of the Fab, sites and chain not stated; 1-3 per Fab by MS
notes: also called Ex-No 57; conjugate 57

- EC50 [3]: 0.21 nM
B14: [Gd/4arm-DOTA-CH2-(1,4-Ph)-NH-C(═S)]p-Fab^2 (Fab, V domains shown)
VH: B8 VH
VL: B8 VL
modifications: labeling may sit on this chain; sites not stated; labeling portion (MW 706) on amino groups of the Fab, sites and chain not stated; 1 per Fab by MS
notes: also called Ex-No 48; conjugate 48
